Experiments:
[1] = system: C[C@H](NC(=O)CCC(=O)O)C(=O)N[C@@H](C)C(=O)N1CCC[C@H]1C(=O)N[C@@H](Cc1ccccc1)C(=O)Nc1ccc([N+](=O)[O-])cc1; experiment: purified protein, by the assay type; conditions: other: substrate AAPF, 0 °C, pH 8.0
[2] = molecular target: cyclosporin A (CsA); experiment: ITC
[3] = system: C[C@H](NC(=O)CCC(=O)O)C(=O)N[C@@H](C)C(=O)N1CCC[C@H]1C(=O)N[C@@H](Cc1ccccc1)C(=O)Nc1ccc([N+](=O)[O-])cc1; experiment: purified protein, by the assay type; format: biochemical, Toxoplasma gondii; conditions: other: substrate AAPF, 0 °C, pH 8.0
Procedure: A trans-isomer is formed by Cyp, which is selectively cleaved by chymotrypsin, producing 4-nitroaniline, a yellow-colored product that can be measured spectrophotometrically.
The assay was performed in 50 mM Hepes, pH 8, and 100 mM NaCl at 0 °C. […] Once the temperature reached 0 °C, chymotrypsin solution, dissolved in HCl 1 mM, was added at 1.8 mg mL^–1 to start the reaction.
Successively, Cyp was added in large excess to enhance the cis-to-trans isomerization. The cis population was estimated by the difference between the final and the initial absorbance.
For all of the experiments, the slope of the catalyzed reaction was corrected for the spontaneous thermal cis–trans isomerization in the presence of the only chymotrypsin.
All measurements were repeated as triplicate, and the error was calculated as the mean standard error of the three measurements. The error associated with the parameter kcat/Km was propagated in agreement with the following equation eq 1 [drawing 1]

[4] = molecular target: human cyclophilin A (CypA) (human) (UniProt P62937)
human cyclophilin A (CypA) (human), sequence (P62937 whole entry): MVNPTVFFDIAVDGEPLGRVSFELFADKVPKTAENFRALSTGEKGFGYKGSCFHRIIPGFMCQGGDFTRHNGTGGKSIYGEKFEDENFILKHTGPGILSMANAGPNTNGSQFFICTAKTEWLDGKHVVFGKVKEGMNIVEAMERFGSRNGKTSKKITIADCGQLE

Substance: CypA (Homo sapiens)
- Km [1]: 661 ± 93 µM
- kcat [1]: 3290 s⁻¹
- kcat/Km [1]: 4.9e+06 M⁻¹ s⁻¹

Substance: TgCyp18.4 (TgCyp289250), cyclophilin from Toxoplasma gondii (enzyme)
- stoichiometry N [2]: 1

Substance: TgCyp23 (TgCyp285760), cyclophilin from Toxoplasma gondii (enzyme)
- stoichiometry N [2]: 1

Substance: TgCyp23 (Toxoplasma gondii VEG)
- Km [3]: 530 ± 97 µM
- kcat [3]: 2010 ± 381 s⁻¹
- kcat/Km [3]: 3.8e+06 ± 200000 M⁻¹ s⁻¹

Substance: cyclosporin A (CsA) (peptide)
- IC50 of CsA on PPIase activity (7 nM enzyme, AAPF substrate, chymotrypsin-coupled assay, 0-30 nM CsA) [4]: 1 nM

— paper PMC9926490, “Structural Basis for Cyclosporin Isoform-Specific Inhibition of Cyclophilins from Toxoplasma gondii” (ACS Infectious Diseases, 2023)
